According to paper doi:10.1101/2022.07.10.499282:

Biological target: CXCL4 (platelet factor 4, PF4) (human)
Test: AUC

- stoichiometry N: 4
Substance: CXCL4 (platelet factor 4, PF4) (natural protein)
